B1: anti-IL-6 Fab, light chain M50E (Fab, V domains shown)
VH: EVQLVESGGGLVQPGGSLRLSCAASGFTFSPFAMSWVRQAPGKGLEWVAKISPGGSWTYYSDTVTGRFTFSLDTSKSTAYLQMNSLRAEDTAVYYCARQLWGYYALDIWGQGTLVTVSS
VL: DIQLTQSPSSLSASVGDRVTITCSASISVSYMYWYQQKPGKAPKLLIYDESNLASGVPSRFSGSGSGTDFTLTISSLQPEDFATYYCMQWSGYPYTFGQGTKVEIK
notes: see m39
B2: anti-IL-6 Fab, light chain S51D (Fab, V domains shown)
VH: EVQLVESGGGLVQPGGSLRLSCAASGFTFSPFAMSWVRQAPGKGLEWVAKISPGGSWTYYSDTVTGRFTFSLDTSKSTAYLQMNSLRAEDTAVYYCARQLWGYYALDIWGQGTLVTVSS
VL: DIQLTQSPSSLSASVGDRVTITCSASISVSYMYWYQQKPGKAPKLLIYDMDNLASGVPSRFSGSGSGTDFTLTISSLQPEDFATYYCMQWSGYPYTFGQGTKVEIK
notes: see m39
B3: anti-IL-6 Fab, light chain S51R (Fab, V domains shown)
VH: EVQLVESGGGLVQPGGSLRLSCAASGFTFSPFAMSWVRQAPGKGLEWVAKISPGGSWTYYSDTVTGRFTFSLDTSKSTAYLQMNSLRAEDTAVYYCARQLWGYYALDIWGQGTLVTVSS
VL: DIQLTQSPSSLSASVGDRVTITCSASISVSYMYWYQQKPGKAPKLLIYDMRNLASGVPSRFSGSGSGTDFTLTISSLQPEDFATYYCMQWSGYPYTFGQGTKVEIK
notes: see m39
B4: anti-IL-6 Fab, light chain S55L (Fab, V domains shown)
VH: EVQLVESGGGLVQPGGSLRLSCAASGFTFSPFAMSWVRQAPGKGLEWVAKISPGGSWTYYSDTVTGRFTFSLDTSKSTAYLQMNSLRAEDTAVYYCARQLWGYYALDIWGQGTLVTVSS
VL: DIQLTQSPSSLSASVGDRVTITCSASISVSYMYWYQQKPGKAPKLLIYDMSNLALGVPSRFSGSGSGTDFTLTISSLQPEDFATYYCMQWSGYPYTFGQGTKVEIK
notes: see m39
B5: anti-IL-6 Fab, light chain S26G (Fab, V domains shown)
VH: EVQLVESGGGLVQPGGSLRLSCAASGFTFSPFAMSWVRQAPGKGLEWVAKISPGGSWTYYSDTVTGRFTFSLDTSKSTAYLQMNSLRAEDTAVYYCARQLWGYYALDIWGQGTLVTVSS
VL: DIQLTQSPSSLSASVGDRVTITCSAGISVSYMYWYQQKPGKAPKLLIYDMSNLASGVPSRFSGSGSGTDFTLTISSLQPEDFATYYCMQWSGYPYTFGQGTKVEIK
notes: see m39
B6: anti-IL-6 Fab, light chain S24P (Fab, V domains shown)
VH: EVQLVESGGGLVQPGGSLRLSCAASGFTFSPFAMSWVRQAPGKGLEWVAKISPGGSWTYYSDTVTGRFTFSLDTSKSTAYLQMNSLRAEDTAVYYCARQLWGYYALDIWGQGTLVTVSS
VL: DIQLTQSPSSLSASVGDRVTITCPASISVSYMYWYQQKPGKAPKLLIYDMSNLASGVPSRFSGSGSGTDFTLTISSLQPEDFATYYCMQWSGYPYTFGQGTKVEIK
notes: see m39
B7: anti-IL-6 Fab, light chain Q89S (Fab, V domains shown)
VH: EVQLVESGGGLVQPGGSLRLSCAASGFTFSPFAMSWVRQAPGKGLEWVAKISPGGSWTYYSDTVTGRFTFSLDTSKSTAYLQMNSLRAEDTAVYYCARQLWGYYALDIWGQGTLVTVSS
VL: DIQLTQSPSSLSASVGDRVTITCSASISVSYMYWYQQKPGKAPKLLIYDMSNLASGVPSRFSGSGSGTDFTLTISSLQPEDFATYYCMSWSGYPYTFGQGTKVEIK
notes: see m39
B8: anti-IL-6 Fab, light chain N52S (Fab, V domains shown)
VH: EVQLVESGGGLVQPGGSLRLSCAASGFTFSPFAMSWVRQAPGKGLEWVAKISPGGSWTYYSDTVTGRFTFSLDTSKSTAYLQMNSLRAEDTAVYYCARQLWGYYALDIWGQGTLVTVSS
VL: DIQLTQSPSSLSASVGDRVTITCSASISVSYMYWYQQKPGKAPKLLIYDMSSLASGVPSRFSGSGSGTDFTLTISSLQPEDFATYYCMQWSGYPYTFGQGTKVEIK
notes: see m39
B9: anti-IL-6 Fab, light chain M88V (Fab, V domains shown)
VH: EVQLVESGGGLVQPGGSLRLSCAASGFTFSPFAMSWVRQAPGKGLEWVAKISPGGSWTYYSDTVTGRFTFSLDTSKSTAYLQMNSLRAEDTAVYYCARQLWGYYALDIWGQGTLVTVSS
VL: DIQLTQSPSSLSASVGDRVTITCSASISVSYMYWYQQKPGKAPKLLIYDMSNLASGVPSRFSGSGSGTDFTLTISSLQPEDFATYYCVQWSGYPYTFGQGTKVEIK
notes: see m39
B10: anti-IL-6 Fab, light chain S26K (Fab, V domains shown)
VH: EVQLVESGGGLVQPGGSLRLSCAASGFTFSPFAMSWVRQAPGKGLEWVAKISPGGSWTYYSDTVTGRFTFSLDTSKSTAYLQMNSLRAEDTAVYYCARQLWGYYALDIWGQGTLVTVSS
VL: DIQLTQSPSSLSASVGDRVTITCSAKISVSYMYWYQQKPGKAPKLLIYDMSNLASGVPSRFSGSGSGTDFTLTISSLQPEDFATYYCMQWSGYPYTFGQGTKVEIK
notes: see m39
B11: anti-IL-6 Fab, light chain S28E (Fab, V domains shown)
VH: EVQLVESGGGLVQPGGSLRLSCAASGFTFSPFAMSWVRQAPGKGLEWVAKISPGGSWTYYSDTVTGRFTFSLDTSKSTAYLQMNSLRAEDTAVYYCARQLWGYYALDIWGQGTLVTVSS
VL: DIQLTQSPSSLSASVGDRVTITCSASIEVSYMYWYQQKPGKAPKLLIYDMSNLASGVPSRFSGSGSGTDFTLTISSLQPEDFATYYCMQWSGYPYTFGQGTKVEIK
notes: see m39
B12: anti-IL-6 Fab, light chain S28W (Fab, V domains shown)
VH: EVQLVESGGGLVQPGGSLRLSCAASGFTFSPFAMSWVRQAPGKGLEWVAKISPGGSWTYYSDTVTGRFTFSLDTSKSTAYLQMNSLRAEDTAVYYCARQLWGYYALDIWGQGTLVTVSS
VL: DIQLTQSPSSLSASVGDRVTITCSASIWVSYMYWYQQKPGKAPKLLIYDMSNLASGVPSRFSGSGSGTDFTLTISSLQPEDFATYYCMQWSGYPYTFGQGTKVEIK
notes: see m39
B13: anti-IL-6 Fab, light chain M88A (Fab, V domains shown)
VH: EVQLVESGGGLVQPGGSLRLSCAASGFTFSPFAMSWVRQAPGKGLEWVAKISPGGSWTYYSDTVTGRFTFSLDTSKSTAYLQMNSLRAEDTAVYYCARQLWGYYALDIWGQGTLVTVSS
VL: DIQLTQSPSSLSASVGDRVTITCSASISVSYMYWYQQKPGKAPKLLIYDMSNLASGVPSRFSGSGSGTDFTLTISSLQPEDFATYYCAQWSGYPYTFGQGTKVEIK
notes: see m39
B14: anti-IL-6 Fab, light chain S30A (Fab, V domains shown)
VH: EVQLVESGGGLVQPGGSLRLSCAASGFTFSPFAMSWVRQAPGKGLEWVAKISPGGSWTYYSDTVTGRFTFSLDTSKSTAYLQMNSLRAEDTAVYYCARQLWGYYALDIWGQGTLVTVSS
VL: DIQLTQSPSSLSASVGDRVTITCSASISVAYMYWYQQKPGKAPKLLIYDMSNLASGVPSRFSGSGSGTDFTLTISSLQPEDFATYYCMQWSGYPYTFGQGTKVEIK
notes: see m39
B15: anti-IL-6 Fab, light chain Q89A (Fab, V domains shown)
VH: EVQLVESGGGLVQPGGSLRLSCAASGFTFSPFAMSWVRQAPGKGLEWVAKISPGGSWTYYSDTVTGRFTFSLDTSKSTAYLQMNSLRAEDTAVYYCARQLWGYYALDIWGQGTLVTVSS
VL: DIQLTQSPSSLSASVGDRVTITCSASISVSYMYWYQQKPGKAPKLLIYDMSNLASGVPSRFSGSGSGTDFTLTISSLQPEDFATYYCMAWSGYPYTFGQGTKVEIK
notes: see m39
B16: anti-IL-6 Fab, light chain S24K (Fab, V domains shown)
VH: EVQLVESGGGLVQPGGSLRLSCAASGFTFSPFAMSWVRQAPGKGLEWVAKISPGGSWTYYSDTVTGRFTFSLDTSKSTAYLQMNSLRAEDTAVYYCARQLWGYYALDIWGQGTLVTVSS
VL: DIQLTQSPSSLSASVGDRVTITCKASISVSYMYWYQQKPGKAPKLLIYDMSNLASGVPSRFSGSGSGTDFTLTISSLQPEDFATYYCMQWSGYPYTFGQGTKVEIK
notes: see m39
B17: anti-IL-6 Fab, light chain S30G (Fab, V domains shown)
VH: EVQLVESGGGLVQPGGSLRLSCAASGFTFSPFAMSWVRQAPGKGLEWVAKISPGGSWTYYSDTVTGRFTFSLDTSKSTAYLQMNSLRAEDTAVYYCARQLWGYYALDIWGQGTLVTVSS
VL: DIQLTQSPSSLSASVGDRVTITCSASISVGYMYWYQQKPGKAPKLLIYDMSNLASGVPSRFSGSGSGTDFTLTISSLQPEDFATYYCMQWSGYPYTFGQGTKVEIK
notes: see m39
B18: anti-IL-6 Fab, light chain S55I (Fab, V domains shown)
VH: EVQLVESGGGLVQPGGSLRLSCAASGFTFSPFAMSWVRQAPGKGLEWVAKISPGGSWTYYSDTVTGRFTFSLDTSKSTAYLQMNSLRAEDTAVYYCARQLWGYYALDIWGQGTLVTVSS
VL: DIQLTQSPSSLSASVGDRVTITCSASISVSYMYWYQQKPGKAPKLLIYDMSNLAIGVPSRFSGSGSGTDFTLTISSLQPEDFATYYCMQWSGYPYTFGQGTKVEIK
notes: see m39
B19: anti-IL-6 Fab, light chain S24V (Fab, V domains shown)
VH: EVQLVESGGGLVQPGGSLRLSCAASGFTFSPFAMSWVRQAPGKGLEWVAKISPGGSWTYYSDTVTGRFTFSLDTSKSTAYLQMNSLRAEDTAVYYCARQLWGYYALDIWGQGTLVTVSS
VL: DIQLTQSPSSLSASVGDRVTITCVASISVSYMYWYQQKPGKAPKLLIYDMSNLASGVPSRFSGSGSGTDFTLTISSLQPEDFATYYCMQWSGYPYTFGQGTKVEIK
notes: see m39
B20: anti-IL-6 Fab, light chain S26H (Fab, V domains shown)
VH: EVQLVESGGGLVQPGGSLRLSCAASGFTFSPFAMSWVRQAPGKGLEWVAKISPGGSWTYYSDTVTGRFTFSLDTSKSTAYLQMNSLRAEDTAVYYCARQLWGYYALDIWGQGTLVTVSS
VL: DIQLTQSPSSLSASVGDRVTITCSAHISVSYMYWYQQKPGKAPKLLIYDMSNLASGVPSRFSGSGSGTDFTLTISSLQPEDFATYYCMQWSGYPYTFGQGTKVEIK
notes: see m39
B21: anti-IL-6 Fab, light chain S51K (Fab, V domains shown)
VH: EVQLVESGGGLVQPGGSLRLSCAASGFTFSPFAMSWVRQAPGKGLEWVAKISPGGSWTYYSDTVTGRFTFSLDTSKSTAYLQMNSLRAEDTAVYYCARQLWGYYALDIWGQGTLVTVSS
VL: DIQLTQSPSSLSASVGDRVTITCSASISVSYMYWYQQKPGKAPKLLIYDMKNLASGVPSRFSGSGSGTDFTLTISSLQPEDFATYYCMQWSGYPYTFGQGTKVEIK
notes: see m39
B22: anti-IL-6 Fab, light chain S24I (Fab, V domains shown)
VH: EVQLVESGGGLVQPGGSLRLSCAASGFTFSPFAMSWVRQAPGKGLEWVAKISPGGSWTYYSDTVTGRFTFSLDTSKSTAYLQMNSLRAEDTAVYYCARQLWGYYALDIWGQGTLVTVSS
VL: DIQLTQSPSSLSASVGDRVTITCIASISVSYMYWYQQKPGKAPKLLIYDMSNLASGVPSRFSGSGSGTDFTLTISSLQPEDFATYYCMQWSGYPYTFGQGTKVEIK
notes: see m39

Broadly, the koff is the first-order rate constant of dissociation.

The target in the assay is recombinant human IL-6 (human, UniProt P05231 30-212). The assay is described as follows: SPR, IL-6 on CM5 chip, Fab lysate, 25 C.
Sequence of recombinant human IL-6 (P05231 30-212 limits assumed): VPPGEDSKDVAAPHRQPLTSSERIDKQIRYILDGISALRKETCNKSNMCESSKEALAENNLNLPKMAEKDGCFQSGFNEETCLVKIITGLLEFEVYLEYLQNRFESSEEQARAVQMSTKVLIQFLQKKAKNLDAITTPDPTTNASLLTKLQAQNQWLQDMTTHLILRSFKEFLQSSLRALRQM
On to B1, for which the koff was 0.00476 s⁻¹. As to B2, the koff is 0.00466 s⁻¹. With B3, the koff amounted to 0.00467 s⁻¹. B4: the koff amounted to 0.00507 s⁻¹. The result for B5 reads 0.00394 s⁻¹. Turning to B6, the koff was determined as 0.00397 s⁻¹. With B7, the koff was determined as 0.00601 s⁻¹. B8: the koff came to 0.00555 s⁻¹.

Regarding B9, the koff was 0.00495 s⁻¹. Consider B10, for which the koff came out at 0.00441 s⁻¹. For the molecule B11, the koff was determined as 0.00451 s⁻¹. With B12, the koff came out at 0.00398 s⁻¹. For B13, the koff is 0.00479 s⁻¹.

For B14, the koff amounted to 0.00654 s⁻¹. Consider B15, for which the koff stood at 0.00585 s⁻¹. In the case of B16, the koff worked out at 0.00416 s⁻¹.

With B17, the koff was found to be 0.00677 s⁻¹. Turning to B18, the koff turned out to be 0.00505 s⁻¹.

Turning to B19, the koff was found to be 0.00416 s⁻¹. For the molecule B20, the koff was 0.00427 s⁻¹. With B21, the dissociation rate constant (koff) worked out at 0.00461 s⁻¹. Consider B22, for which the koff was 0.00412 s⁻¹.

Source of the values: US20240209076A1 (KODIAK SCIENCES, published 2024).
